Measured values: patent publication US20140109263A1

How the values were obtained:
[1] = target: receptor proteins in midgut brush border membrane vesicles (BBMV's) from fall armyworm (FAW; Spodoptera frugiperda) larvae (Spodoptera frugiperda); assay: homologous competition: unlabeled Cry1Ea against 125I Cry1Ea on FAW BBMV's, FIG. 3
[2] = target: receptor proteins in midgut brush border membrane vesicles (BBMV's) from fall armyworm (FAW; Spodoptera frugiperda) larvae (Spodoptera frugiperda); assay: homologous competition: unlabeled Cry1Ea against 0.5 nM 125I Cry1Ea on FAW BBMV's (150 ug/ml), FIG. 1
[3] = target: receptor proteins in midgut brush border membrane vesicles (BBMV's) from fall armyworm (FAW; Spodoptera frugiperda) larvae (Spodoptera frugiperda); assay: heterologous competition: 1,000 nM unlabeled Cry1Da against 125I Cry1Ea on FAW BBMV's, FIG. 4

Substance | IC50 [1] | IC50 [2] | percent displacement of ^125I Cry1Ea [3]
Cry1Ea protein, trypsin-cleaved activated form (protease-processed Cry1Ea) (from UniProt Q57458 1-612) | 1 nM | 1 nM | 
Cry1Da protein, trypsinized (protease-processed Cry1Da) (from UniProt P19415 28-603) |  |  | 40%
